This data set in a line: amyloid nucleation score (Sup35N fusion, yeast selection) (log enrichment); library NNK1; higher = more nucleation; inactive = no reads after selection. The essentials: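 Using DiMSum, nucleation scores were taken as the log enrichment of output over input reads, centred on the mode score of non-aggregating sequences. The input and output reads came from Illumina sequencing of plasmid inserts, with sequences under 100 input reads excluded. The yeast were psi-negative, expressed Sup35N fused to peptides of 20 random codons, were induced with 100 μM copper sulfate for 24 hours, and were grown 7 days at 30°C on medium lacking adenine and uracil.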

± gives the uncertainty stated by the source.

Substance NFHDEV had an amyloid nucleation score of -1.22 ± 1.5.

With YAFIG, the amyloid nucleation score is -1.07 ± 1.5. In turn, VKKLQVA displayed an amyloid nucleation score of 1.11 ± 0.74. With WRGLPSNG the figure was 0.024 ± 0.36; with KYVIMLNLKSEL, 3.4 ± 0.091. As to TGLSWVYSFRIEYVKVGFY, the amyloid nucleation score turned out to be 0.426 ± 0.9. The substance AVVCVIIFYVNDRLYGCNLS came in with an amyloid nucleation score of 0.395 ± 0.23. Substance LCNPQYM came in with an amyloid nucleation score of 1.38 ± 0.69. Substance GKRSDIVLMLLIEMGHMLSQ registered an amyloid nucleation score of 3.1 ± 0.13. In the case of LQYWEVYSSCRMRVGYYSAD, the amyloid nucleation score was 1.67 ± 0.13. As for VNSKFMGKY, the amyloid nucleation score came to 0.192 ± 0.39. NGVLYFD showed an amyloid nucleation score of 0.371 ± 0.57. With RPGWSHRITENLPFVEKVGP, the amyloid nucleation score was -0.502 ± 0.7. In turn, SNSNTIP displayed an amyloid nucleation score of -0.676 ± 0.98.

Regarding FDSVESRTAPTRMILLRTLF, the amyloid nucleation score entry was “inactive”. Substance ASLRLSTSLCEYGYRGRYTK had an amyloid nucleation score of -0.05 ± 0.25.

With VLLRKVKRLNRYHMSTGGL, the amyloid nucleation score result is “inactive”. The substance FSDTRTGGDSTPKN had an amyloid nucleation score of 0.108 ± 0.36. Consider YKDIMHHVN, for which the amyloid nucleation score entry was “inactive”. The substance GPALTHTHS returned an amyloid nucleation score of 0.306 ± 0.63. As to VYSQINSRHWEFMDLELSLG, the amyloid nucleation score was determined as 0.147 ± 0.93.

With TVNVY, the amyloid nucleation score worked out at 0.829 ± 0.62. Substance HWLPHDVLSMWW came in with an amyloid nucleation score of 1.29 ± 0.67. ANGLMGSWSLEARSFRSDVL: the amyloid nucleation score was -0.179 ± 1.5. For RCWRSLPRLLRQFMDSSRTI, the amyloid nucleation score is -0.27 ± 0.61.

Take LAWCNY: the amyloid nucleation score was determined as 0.765 ± 0.57. The figure for KGYGRFMSFF is -0.697 ± 0.4; for CNPSG it is 0.819 ± 0.51. The substance GRSLY yielded an amyloid nucleation score of -0.413 ± 0.46. On to FLPGQNAIFKTLLVCSTVKV, for which the amyloid nucleation score was -0.675 ± 1.2.

The substance GGYWWQDRRHGPILYLVFWA registered an amyloid nucleation score of 0.552 ± 0.34. In turn, VCSRLDSEQHDHECASQELM had an amyloid nucleation score of 0.106 ± 0.99. For the substance QYTYFMSGDWSNGRVSLVKK, the amyloid nucleation score was 2.96 ± 0.099. With SGTDLRISNHAT the entry was “inactive”. As for SNEVSGLVCQLTNVVYLLGL, the amyloid nucleation score was determined as 4.89 ± 0.052. With TGPKRLTDNREFRKF, the amyloid nucleation score was -1.01 ± 2.7. RLSNYFNLECEQIRSYYRYM displayed an amyloid nucleation score of 1.85 ± 0.11. In turn, MPKCSTLNTKVFRPMVWFSV yielded an amyloid nucleation score of 1.43 ± 0.29. The figure for CTVMHELCCRWFELFRRSVR is 1.45 ± 0.63; for KCYIVSLNNVGCFTNASS it is 5.13 ± 0.072. On to LYSGFNRSKRSAVNSICAH, for which the amyloid nucleation score is 0.368 ± 0.18.

YRMVCVLITVPANQIYCLLH gave an amyloid nucleation score of 0.541 ± 0.69.

Substance VICSHLVSITYYLY returned an amyloid nucleation score of 3.59 ± 0.057. Substance FDSLNAYSLSPSMVMKDSRG yielded an amyloid nucleation score of 0.17 ± 0.18.

In the case of RMQRNRGYPKVLLDMN, the amyloid nucleation score is -0.472 ± 0.46. With RRKESYYGSSTYVSTNYAL, the amyloid nucleation score is -0.075 ± 0.68. With MRMISFKTVGALFVYCLSLG the figure was 0.313 ± 0.49; with DIYIMSNGLGYYFFSTNVRM, 2.55 ± 0.19. In turn, WFTAFARK gave an amyloid nucleation score of 3.41 ± 0.11. The figure for YFISVVFASGKGW is -0.387 ± 0.8.

The substance RSSCVELGWIGWRARTNR gave an amyloid nucleation score of 0.407 ± 0.57. In turn, LRYASEGSKFFVWNLTYLNR showed an amyloid nucleation score of -0.147 ± 1.2. NIISEN: the amyloid nucleation score result is “inactive”.

Turning to SMCTCLRMGRLPIQVFSWSG, the amyloid nucleation score was -1.52 ± 2.7.

Consider SCMTLLRFKRMEDLK, for which the amyloid nucleation score turned out to be 2.45 ± 0.19. With NWHAVNCRSPST the figure was 1.07 ± 0.51; with TNINSSTDKRLPTET, -0.013 ± 0.5. Consider RSNTRCAFKNFIFSMTCAFK, for which the amyloid nucleation score turned out to be 0.823 ± 0.5. For SPPSSNIFPCI, the amyloid nucleation score was 0.052 ± 0.69. In the case of SWNKGLREED, the amyloid nucleation score was 0.562 ± 0.72. RFIVM yielded an amyloid nucleation score of 0.304 ± 0.78. TISGLFLSRLYSKTMGGC gave an amyloid nucleation score of 1.89 ± 0.62. Consider NAVSIRGLRVDRQN, for which the amyloid nucleation score was determined as 0.112 ± 0.55. With PLRNGWFLRKLRS the figure was -1.35 ± 1.3; with LYCSNLILVWLFCRSDISVR, 5.17 ± 0.056. On to GSWNALRLRCVNVVRTGVMN, for which the amyloid nucleation score is -0.496 ± 0.59. With PRCNSFNSYCFA, the amyloid nucleation score was found to be 0.224 ± 0.29. With YLSMFVWTGGNM the figure was 2.08 ± 0.31. As for YLDSSFFCFLVAIKMDDARH, the amyloid nucleation score came to 6.08 ± 0.087. With LGCLFNAGAFWAYGGMVSLH the figure was -0.024 ± 0.57; with LYNSRTWMIGIGSPAQIV, -0.731 ± 0.61.

Consider PEAGGLHARYVYFVWNSAPC, for which the amyloid nucleation score was 2.69 ± 0.28.

EYAVIGKS showed an amyloid nucleation score of -0.186 ± 1. In the case of CLLHEASCGWFFGWFVRHT, the amyloid nucleation score was 0.989 ± 0.28. The figure for RRYRVLANISS is 0.66 ± 0.49; for AWLKSSGEEVVAGAQRPEHV it is -1.02 ± 0.9. Turning to MLRTAMKCWSTSMGDCLEAF, the amyloid nucleation score stood at 0.619 ± 0.48.

Consider PNIFCLQRSPNRP, for which the amyloid nucleation score is -0.331 ± 0.31. Take SRPHTVWDMC: the amyloid nucleation score was found to be 0.245 ± 0.32. Take TFPGSHLFTFLMMEGSLNHG: the amyloid nucleation score amounted to 0.694 ± 0.64. Consider LRIARVYVYKIRAWSVVSGK, for which the amyloid nucleation score was -1.35 ± 0.63. LDGTGWYCCQYSGGLYSLCG: the amyloid nucleation score was -0.073 ± 0.31. As to INLCVPPRNVLFIDRCWTVV, the amyloid nucleation score is 1.29 ± 0.3. For MVRCNYRRRVGGDT, the amyloid nucleation score came to 0.905 ± 0.69. In the case of AGDTMAVWLPHQKRGGCFEM, the amyloid nucleation score is -0.815 ± 1.2. For the substance FNWDGQFAVCMWKS, the amyloid nucleation score is -0.221 ± 0.38. MGAVKH showed an amyloid nucleation score of -0.017 ± 0.3. On to RYLYVPALPFNFLCL, for which the amyloid nucleation score was 1.63 ± 0.1. Regarding HGRLTYSDVVNVRTFPGLMK, the amyloid nucleation score was -0.232 ± 0.25. LSIIVHNCGVLVVSMTLTVI yielded an amyloid nucleation score of -0.172 ± 1.6. For the substance VDGGMLSHYYYC, the amyloid nucleation score came to 0.258 ± 0.23. Turning to WQCDLNDLLVCTFSMLGYGR, the amyloid nucleation score was -1.05 ± 1.7.

In turn, RCGCERTYSFR returned an amyloid nucleation score of -0.027 ± 0.72. For SMAGEFWSVLFFCESIWGGD, the amyloid nucleation score was found to be 4.83 ± 0.12. With IPGGLNKERPYWYCTQMAGT the figure was 1.25 ± 0.55; with KVIRLIFRGY, 0.871 ± 0.64; with LMSTVIVESVVIWGMAARVQ, 2.62 ± 0.11. In turn, VVRAFLTLILAVIDEENGSE registered an amyloid nucleation score of -1.42 ± 2.7. As for RRWYTSHLLWGRNISAGDIL, the amyloid nucleation score was -0.221 ± 0.44. FLMYFQNRV returned an amyloid nucleation score of 0.624 ± 0.33. The substance RSQCQAGCELYGFA displayed an amyloid nucleation score of -0.303 ± 0.78.

In the case of RFCSKRMRVLIFFGLV, the amyloid nucleation score is -0.165 ± 0.34.

Substance TFMLATDGV gave an amyloid nucleation score of 0.595 ± 0.69.

As to RDSGLVGIPLTRTRIVKLST, the amyloid nucleation score was -0.35 ± 0.56. Regarding IMPSCKLLAAHVADYVFLMR, the amyloid nucleation score worked out at 0.863 ± 0.84. RGSKVFSSDALVSRLARRVG showed an amyloid nucleation score of -0.462 ± 0.5.

For YLLCMGMVFSIGKFSSIPCP, the amyloid nucleation score result is “inactive”.

With YFVMGLIFGLKRLLVLAIRR, the amyloid nucleation score was -0.53 ± 0.3.

Turning to AVSSVVPGTCL, the amyloid nucleation score was 0.55 ± 0.68. Turning to YGDDRWYIRSIIEDCQLGGF, the amyloid nucleation score was -0.716 ± 0.5. Substance HSNCVLVVDMLAQWLMRAGD had an amyloid nucleation score of 0.384 ± 0.79.

The substance QDYGDDLRSGFRGYLSSPQG yielded an amyloid nucleation score of 0.264 ± 0.32.

Substance GHLENPFDERASCWRITADG came in with an amyloid nucleation score of 1.25 ± 0.74. Consider CRTYYCHTHGPAQKDHYDRG, for which the amyloid nucleation score is -0.78 ± 0.89. Consider WTSSVFSIAHPVRYVRFYAV, for which the amyloid nucleation score was determined as 0.307 ± 0.54. For YYNRFILRSWEGSSMGLWSC, the amyloid nucleation score was -0.582 ± 0.36. As to YLDRSRLMIKCHVHVKYVYY, the amyloid nucleation score worked out at 7.92 ± 0.048. ISCVDWAIKCGVVGSLVSET yielded an amyloid nucleation score of 0.681 ± 0.99. In turn, VVEFCCVQT yielded an amyloid nucleation score of -1.53 ± 1.7. For the substance WGICAVLHLMTIIGLIRVER, the amyloid nucleation score entry is “inactive”. Substance TGDDSYDVLLVGLVKTSGVY gave an amyloid nucleation score of -0.234 ± 0.34.

As for CLKHLWLRQSKEKVD, the amyloid nucleation score result was “inactive”. Substance VRKSVSTFT came in with an amyloid nucleation score of 0.055 ± 0.37. In turn, DNRSFFWNL showed an amyloid nucleation score of 2.22 ± 0.13. On to VVSMSQEVEAPRAPHMAAFK, for which the amyloid nucleation score was 0.25 ± 0.53. In turn, KYWLMSLLAVKPSSRDSYGQ gave an amyloid nucleation score of -0.239 ± 0.28. Regarding LDRMFSVVRNNVTTSVLSEK, the amyloid nucleation score was 0.234 ± 0.32. Regarding LDVLLLLMDCSRYPKIKGGI, the amyloid nucleation score was -0.012 ± 0.43.

For GKLSDINCLYSSDSLGCLGL, the amyloid nucleation score stood at 0.815 ± 0.9.

In turn, GSELGIKRTLSLFICLWIIG had an amyloid nucleation score of -0.731 ± 0.36. The substance VKGSGGGWFERNSGAPRKVF gave an amyloid nucleation score of 1.03 ± 0.38. Regarding MLWFSGCPRGGQRGVCESQG, the amyloid nucleation score amounted to 0.284 ± 0.55. The substance MRISMSVSLLFSYSQYVKLE yielded an amyloid nucleation score of -0.238 ± 0.9. With IGSFGNRYRVPMRTASGYNM the figure was 0.623 ± 1. With WYEWSPFSSTWRSSIVLFNL the figure was 0.417 ± 0.56; with DLFDIDLRYFLLRVFKGCP, 0.579 ± 0.46; with DTSVFWVKIYIFGSISHWAG, 0.606 ± 1. As for VQPDDLARTGRLQLVLLVWN, the amyloid nucleation score was -0.883 ± 0.92.

Consider LDVRAIRYILK, for which the amyloid nucleation score was -0.252 ± 1.4.

Substance QNRSHKPEFGRMPASQPVTN came in with an amyloid nucleation score of 0.447 ± 0.63. The figure for PSRWIAVPSMEVKVL is 0.16 ± 1.1; for TVYYFG it is 1.18 ± 0.19.
